One block for each compound: values may come before it.
How the values were obtained:
α-synuclein [1] = molecular target: T1, α-synuclein (Homo sapiens, UniProt P37840); assay: Tyrosine fluorescence assay of metal binding to α-synuclein; details: wildtype α-synuclein
T1 construct: His-6 (cleaved yes); made in house; host or cells: bacteria (IPTG-induced; Pro-Ex His 6 vector)
Protocol: (§1) Because iron binds to other proteins that form aggregates and iron is known to accumulate in Parkinson's disease, iron might bind directly to α-synuclein. To confirm this hypothesis, the interaction of iron with α-synuclein was tested using tyrosine fluorescence as an indicator of iron binding. […] Fluorescence of tyrosine has been used to monitor binding of metals to β-amyloid [Garzon-Rodriguez W. et al., Bioorg. Med. Chem. Let., 9:2243-2248 (1999), which is hereby incorporated by reference]. A similar approach was taken to analyze binding of iron to α-synuclein. Tyrosine has a fluorescence emission spectrum that has a peak emission of 310 nm when excited at 280 nm, respectively (FIG. 2A). It was observed that binding of iron reduced the fluorescence of the tyrosines in α-synuclein. […] The Hill coefficient was 1.0 (R^2=1.0, P<0.0001), indicating one binding site for iron with no cooperativity (FIGS. 2A & B). α-Synuclein was also tested for binding to other metals, including CuCl2, ZnCl2 and MgCl2. Because the C-terminus of α-synuclein has a region with 7 glutamates and 4 aspartates, which together could chelate iron, we created a deletion construct lacking the last 27 amino acids on α-synuclein and analyzed binding of this construct.
To monitor the binding profiles of Fe(II) and Mg(II) to α-synuclein in vitro we used changes of tyrosine fluorescence. Tyrosine fluorescence is used as an indicator of changes in protein conformation or binding of metals. Excitation of tyrosine at 280 nm elicits fluorescence that peaks at 310 nm for monomeric tyrosine, and at 350-400 nm for tyrosinate or dimeric tyrosine. The fluorescence spectrum of α-synuclein yielded fluorescence peaks at 310 and 400 nm. The peak at 400 nm cannot be explained by the presence of dimeric tyrosine, due to dimerization of α-synuclein, because dimerization of α-synuclein decreases the fluorescence at 400 nm, and tends to eliminate the peak at 400 nm.

A53T α-synuclein = molecular target: T2, A53T α-synuclein (Homo sapiens, UniProt P37840, A53T); assay: Tyrosine fluorescence assay of metal binding to A53T α-synuclein
T2 construct: His-6 (cleaved yes); made in house; host or cells: bacteria (IPTG-induced; Pro-Ex His 6 vector)
Description: We also examined how the A53T mutation in human α-synuclein affected binding of iron and magnesium. […] Previous studies have shown that A53T mutation changes the conformation of α-synuclein by increasing its helical content (Polymeropoulos et al., Science, 276:2045-7(1997)). These conformational changes might also reduce binding of magnesium to α-synuclein.

[2] = system: BE-M17 neuroblastoma cells; assay: Iron-induced α-synuclein aggregation in BE-M17 cell lines (fractionation, immunoblot); format: cell-based, human; details: for formation of large α-synuclein aggregates migrating in the stacking gel: cells over-expressing A30P or wild type α-synuclein, 48 hrs, 10 mM FeCl2 and/or 5-500 μM dopamine
Protocol: Immunoblotting: Cells were harvested with SDS lysis solution (2% SDS, 10 mM Tris, pH 7.4, 2 mM β-glycerol phosphate, 1 μM AEBSF). The amount of protein was determined using the BCA assay (Pierce), […] per lane was run on 14% SDS polyacrylamide gels and transferred to nitrocellulose (200 mAmp, 12 hrs). The nitrocellulose was then incubated 1 hr in 5% milk/PBS, washed, incubated overnight in 1° antibody, washed, then incubated 3 hrs in peroxidase coupled 2° antibody and developed with chemiluminescent reagent (NEN).
Cell fractionation: For cell fractionation the cells were harvested in buffer containing 20 mM Tris, pH 7.4, 2 mM EDTA, 0.25 M sucrose, and 20 μg/mL protease inhibitor cocktail (Sigma). The cell lysate was sonicated and centrifuged at 100,000×g at 4° C. for 1 hr.
To test whether A53T and A30P mutations in α-synuclein increase the tendency of α-synuclein to aggregate in neurons, α-synuclein aggregation was determined in human BE-M17 neuroblastoma cells that were stably transfected with wild type, A53T or A30P α-synuclein. Each cell line was treated for 48 hours with freshly prepared FeCl2 (1 or 10 mM), then harvested, homogenized and fractionated into membrane and cytoplasmic components. The membrane (5 μg/lane) and cytoplasmic (20 μg/lane) components were immunoblotted with monoclonal anti-α-synuclein antibody.
To determine the effect of increasing the duration of exposure to iron on aggregation of α-synuclein at lower doses of iron, BE-M17 cells which are over-expressing A53T or wildtype α-synuclein were exposed to FeCl2 for 4 days. Under these conditions, doses as low as 0.3 μM FeCl2 produced detectable aggregation of α-synuclein in cells expressing A53T α-synuclein.
Neurol. 57:793-796 (2000)]. If so, adding free radical generators, such as hydrogen peroxide or dopamine, along with the iron might increase the amount of α-synuclein aggregation. To further determine that oxidation enhanced iron-induced aggregation of α-synuclein, BE-M17 cells over-expressing A30P or wildtype α-synuclein were treated for 48 hrs with 10 mM FeCl2 plus varying concentrations of dopamine (0.5, 50, and 500 μM).

[3] = system: BE-M17 cells over-expressing α-synuclein; assay: Iron-mediated toxicity in BE-M17 cell lines, MTT assay; format: cell-based; details: for reduction of LD50 by α-synuclein over-expression: 48 hrs
Protocol: To determine if the conditions that produce α-synuclein aggregation also produce toxicity, the vulnerability of each cell line to iron and/or hydrogen peroxide-mediated toxicity was tested. Each cell line (untransfected, wild type, A53T and A30P a-synuclein) was treated with varying doses of FeCl2, H2O2 or FeCl2+H2O2 and the amount of toxicity was determined by MTT assay. […] Over-expression of A30P or wild type α-synuclein constructs reduced the LD50 values by ˜50%, although the amount of toxicity seen in A30P-expressing cells in response to low levels of iron was generally greater than toxicity seen with wildtype α-synuclein (FIG. 1A). To confirm that over-expression of α-synuclein increased the vulnerability of the neuroblastoma cells to iron, iron-induced toxicity was tested using a LDH assay (FIG. 1B). The LDH assay confirmed that over-expression of the α-synuclein constructs increases iron-induced toxicity (FIG. 1B).

α-synuclein ΔC1-113 = molecular target: T3, α-synuclein ΔC1-113 (Homo sapiens, UniProt P37840); assay: Tyrosine fluorescence assay of iron binding to C-terminal deletion construct
T3 construct: made in house
Protocol: as §1

[4] = molecular target: T4, C-terminal (approx. amino acids 113-140) of α-synuclein (Homo sapiens, UniProt P37840); assay: Phage display selection for binding to C-terminal portion of α-synuclein; details: for binding to the C-terminal portion of α-synuclein: phage display
T4 construct: The peptides were selected using the α-synuclein 121-131 and 61-87 peptides as the bait
Description: (§2) Such peptides can be found, for instance, by using phage display to select for those phage expressing a peptide on their surface that binds to α-synuclein, and determining what the peptide is. The inhibitory effect of that peptide, or any peptide for that matter, can also be tested to determine its usefulness as an agent for treating a Lewy body disease or synucleinopathy by using assays such as those disclosed herein or as disclosed in U.S. Pat. No. 6,184,351, which is incorporated herein by reference. Such peptides have been selected for their ability to bind to the C-terminal (approx. amino acids 113-140), and the NAC portion (approx. amino acids 61-87) of α-synuclein, because this region is thought to be involved with the aggregation process. Several peptides that bind to the C-terminal portion are as follows (all peptides are given in […] order): (1) WRQTRKD (SEQ ID NO: 1); (2) HYAKNPI (SEQ ID NO: 2); (3) ATINKSL (SEQ ID NO: 3); (4) RRRGMAI (SEQ ID NO: 4); (5) THRLPSR (SEQ ID NO: 5); and (6) TKHGPRK (SEQ ID NO: 6). Several peptides that bind to the NAC portion are: (1) SLKRLPK (SEQ ID NO: 7); (2) RLRGRNQ (SEQ ID NO: 8); (3) WPFHHHR (SEQ ID NO: 9); (4) HLYHHKT (SEQ ID NO: 10); (5) THIHHPS (SEQ ID NO: 11); and (6) MMMMMRL (SEQ ID NO: 12). […] Most preferred is the peptide SLKRLPK (SEQ ID NO: 7).
(§3) Phage display: Incubating a library of phage that is all identical except for a sequence of 7 amino acids that are presented on the coat and randomly differ from phage to phage. Phage which express a sequence that specifically binds to α-synuclein are then isolated, cloned, and the DNA sequenced to determined the amino acid sequence. The 7 amino acid peptide is then synthesized and tested directly.
(§4) Phage display (phage display kit was from New England Biolabs (Beverly, Mass.)) was used to specifically select for peptides that can inhibit iron binding. […] The peptides were selected using the α-synuclein 121-131 and 61-87 peptides as the bait. One such peptide has the sequence SLKRLPK (SEQ ID NO: 7).

[5] = molecular target: T5, NAC portion (approx. amino acids 61-87) of α-synuclein (Homo sapiens, UniProt P37840); assay: Phage display selection for binding to NAC portion of α-synuclein; details: for binding to the NAC portion of α-synuclein: phage display; for relative binding properties: NAC portion binders
T5 construct: The peptides were selected using the α-synuclein 121-131 and 61-87 peptides as the bait
Description: as §2, §3, §4

α-synuclein [6] = molecular target: T1, α-synuclein; assay: Phage ELISA binding to α-synuclein absorbed to plastic well
Protocol: Bound phage was detected by adding peroxidase coupled anti-phage antibody, incubating 1 hr, washing 5 times and detecting signal using the peroxidase substrate ABTS. Bound phage produces a dark green signal that is measured as optical density with a spectrophotometer. Using these conditions, the phage containing the SLKRLPK (SEQ ID NO: 7) peptide gave OD's of 0.882, 0.844, and 0.480 at dilutions of 1:10, 1:100, and 1:1000, respectively.

Compound: [Cl][Fe][Cl] [FeCl2]
Hill coefficient of iron binding curve (α-synuclein [1]): 1.0
IC50 (α-synuclein [1]; excitation 280 nm, sigmoidal fit, read-out: IC50 of quenching of α-synuclein tyrosine fluorescence (iron binding)): 173 µM
effect of A53T mutation on binding to α-synuclein (A53T α-synuclein): did not change the apparent affinity
α-synuclein aggregate formation ([2]; A53T-expressing cell line, 1 or 10 mM, 48 hours, membrane fraction): induced dose-dependent formation of heterogeneous high molecular weight α-synuclein aggregates
lowest dose producing detectable aggregation of α-synuclein ([2]; cells expressing A53T α-synuclein, 4 days): 0.3 µM
formation of large α-synuclein aggregates migrating in the stacking gel [2]: did not induce any aggregation
α-synuclein aggregate formation ([2]; untransfected, wildtype and A30P cell lines, 48 hr): did not induce α-synuclein aggregates
increase in vulnerability to induced toxicity in cells over-expressing α-synuclein [3]: ≤ 4 fold
reduction of LD50 by α-synuclein over-expression ([3]; A30P or wild type α-synuclein over-expressing cells versus untransfected): ~50%
reduction of LD50 by α-synuclein over-expression ([3]; A53T α-synuclein over-expressing cells versus untransfected): over 75%
IC50 (α-synuclein ΔC1-113; construct lacking the last 27 amino acids): 726 µM
reduction in iron binding versus wildtype (α-synuclein ΔC1-113; ΔC1-113 versus wildtype α-synuclein): > 4 fold

Compound: NCCc1ccc(O)c(O)c1 [dopamine]
formation of large α-synuclein aggregates migrating in the stacking gel [2]: did not induce formation of large α-synuclein aggregates

Compound: ATINKSL (listed as Homo sapiens)
binding to the C-terminal portion of α-synuclein [4]: bind

Compound: TKHGPRK (listed as Homo sapiens)
binding to the C-terminal portion of α-synuclein [4]: bind

Compound: WPFHHHR (listed as Homo sapiens)
binding to the NAC portion of α-synuclein [5]: bind

Compound: WRQTRKD (listed as Homo sapiens)
binding to the C-terminal portion of α-synuclein [4]: bind

Second part, the compound after the results:

binding to the NAC portion of α-synuclein [5]: bind
Compound: HLYHHKT (listed as Homo sapiens)

binding to the C-terminal portion of α-synuclein [4]: bind
Compound: HYAKNPI (listed as Homo sapiens)

relative binding properties [5]: stronger binding properties
binding to the NAC portion of α-synuclein [5]: bind
Compound: MMMMMRL (listed as Homo sapiens)

binding to the NAC portion of α-synuclein [5]: bind
Compound: RLRGRNQ (listed as Homo sapiens)

binding to the C-terminal portion of α-synuclein [4]: bind
Compound: RRRGMAI (listed as Homo sapiens)

OD of bound phage (α-synuclein [6]; phage dilution 1:10): 0.882
OD of bound phage (α-synuclein [6]; phage dilution 1:100): 0.844
OD of bound phage (α-synuclein [6]; phage dilution 1:1000): 0.480
binding of phage to α-synuclein by ELISA (α-synuclein [6]; phage expressing the sequence): particularly strong binding
relative binding properties [5]: stronger binding properties
binding to the NAC portion of α-synuclein [5]: bind
Compound: SLKRLPK (listed as Homo sapiens)

relative binding properties [5]: stronger binding properties
binding to the NAC portion of α-synuclein [5]: bind
Compound: THIHHPS (listed as Homo sapiens)

relative binding properties ([4]; C-terminal portion binder): stronger binding properties
binding to the C-terminal portion of α-synuclein [4]: bind
Compound: THRLPSR (listed as Homo sapiens)

Source: US6780971B2, “Compositions for inhibiting the aggregation pathway of α-synuclein” (Panacea Pharmaceuticals, Inc., priority 2000, dated 2004)
